± gives the standard deviation of the averaged measurements.
Assay: total protein half-life in vivo (active degradation + dilution); higher = more stable protein
[1] = E. coli NCM3722 delta-clpP, growth: N-lim chemostat, doubling time 6 h
[2] = E. coli NCM3722 delta-hslV, growth: N-lim chemostat, doubling time 6 h
[3] = E. coli NCM3722 delta-lon, growth: N-lim chemostat, doubling time 6 h
[4] = E. coli NCM3722 delta-smpB, growth: N-lim chemostat, doubling time 6 h
[5] = wild type E. coli NCM3722, growth: C-lim chemostat, doubling time 3 h
[6] = wild type E. coli NCM3722, growth: C-lim chemostat, doubling time 6 h
[7] = wild type E. coli NCM3722, growth: C-lim chemostat, doubling time 12 h
[8] = wild type E. coli NCM3722, growth: N-lim chemostat, doubling time 6 h
[9] = wild type E. coli NCM3722, growth: N-lim chemostat, doubling time 12 h
[10] = wild type E. coli NCM3722, growth: P-lim chemostat, doubling time 6 h
[11] = wild type E. coli NCM3722, growth: P-lim chemostat, doubling time 12 h
[12] = E. coli NCM3722 delta-clpP delta-lon delta-hslV, growth: N-lim chemostat, doubling time 6 h

Sequence	total protein half-life in vivo [1] [h]	total protein half-life in vivo [2] [h]	total protein half-life in vivo [3] [h]	total protein half-life in vivo [4] [h]	total protein half-life in vivo [5] [h]	total protein half-life in vivo [6] [h]	total protein half-life in vivo [7] [h]	total protein half-life in vivo [8] [h]	total protein half-life in vivo [9] [h]	total protein half-life in vivo [10] [h]	total protein half-life in vivo [11] [h]	total protein half-life in vivo [12] [h]
MRKNTYAMRYVAGQPAERILPPGSFASIGQALPPGEPLSTEERIRILVWNIYKQQRAEWLSVLKNYGKDAHLVLLQEAQTTPELVQFATANYLAADQVPAFVLPQHPSGVMTLSAAHPVYCCPLREREPILRLAKSALVTVYPLPDTRLLMVVNIHAVNFSLGVDVYSKQLLPIGDQIAHHSGPVIMAGDFNAWSRRRMNALYRFAREMSLRQVRFTDDQRRRAFGRPLDFVFYRGLNVSEASVLVTRASDHNPLLVEFSPGKPDK [P0A8U2]	4.41	2.48 ± 0.64	3.2 ± 0.29	2.65 ± 0.35	1.62 ± 0.14	2.47 ± 0.035	3.514 ± 0.023	2.76 ± 0.092	4.14 ± 0.052	2.42 ± 0.055	3.83 ± 0.2	
MKGLNKITCCLLAALLMPCAGHAENEQYGANFNNADIRQFVEIVGQHLGKTILIDPSVQGTISVRSNDTFSQQEYYQFFLSILDLYGYSVITLDNGFLKVVRSANVKTSPGMIADSSRPGVGDELVTRIVPLENVPARDLAPLLRQMMDAGSVGNVVHYEPSNVLILTGRASTINKLIEVIKRVDVIGTEKQQIIHLEYASAEDLAEILNQLISESHGKSQMPALLSAKIVADKRTNSLIISGPEKARQRITSLLKSLDVEESEEGNTRVYYLKYAKATNLVEVLTGVSEKLKDEKGNARKPSSSGAMDNVAITADEQTNSLVITADQSVQEKLATVIARLDIRRAQVLVEAIIVEVQDGNGLNLGVQWANKNVGAQQFTNTGLPIFNAAQGVADYKKNGGITSANPAWDMFSAYNGMAAGFFNGDWGVLLTALASNNKNDILATPSIVTLDNKLASFNVGQDVPVLSGSQTTSGDNVFNTVERKTVGTKLKVTPQVNEGDAVLLEIEQEVSSVDSSSNSTLGPTFNTRTIQNAVLVKTGETVVLGGLLDDFSKEQVSKVPLLGDIPLVGQLFRYTSTERAKRNLMVFIRPTIIRDDDVYRSLSKEKYTRYRQEQQQRIDGKSKALVGSEDLPVLDENTFNSHAPAPSSR				1.92 ± 0.044	2.2							2.53
MSVQQIDWDLALIQKYNYSGPRYTSYPTALEFSEDFGEQAFLQAVARYPERPLSLYVHIPFCHKLCYFCGCNKIVTRQQHKADQYLDALEQEIVHRAPLFAGRHVSQLHWGGGTPTYLNKAQISRLMKLLRENFQFNADAEISIEVDPREIELDVLDHLRAEGFNRLSMGVQDFNKEVQRLVNREQDEEFIFALLNHAREIGFTSTNIDLIYGLPKQTPESFAFTLKRVAELNPDRLSVFNYAHLPTIFAAQRKIKDADLPSPQQKLDILQETIAFLTQSGYQFIGMDHFARPDDELAVAQREGVLHRNFQGYTTQGDTDLLGMGVSAISMIGDCYAQNQKELKQYYQQVDEQGNALWRGIALTRDDCIRRDVIKSLICNFRLDYAPIEKQWDLHFADYFAEDLKLLAPLAKDGLVDVDEKGIQVTAKGRLLIRNICMCFDTYLRQKARMQQFSRVI	3.9 ± 0.13	3.36 ± 0.42	3.22 ± 0.1	2.98 ± 0.056	2.55 ± 0.33	4.23 ± 0.08	6.14 ± 0.71	2.99 ± 0.12	4.64 ± 0.16	4.23 ± 0.068	7.23 ± 0.7	4.79 ± 0.99
MPEATPFQVMIVDDHPLMRRGVRQLLELDPGSEVVAEAGDGASAIDLANRLDIDVILLDLNMKGMSGLDTLNALRRDGVTAQIIILTVSDASSDVFALIDAGADGYLLKDSDPEVLLEAIRAGAKGSKVFSERVNQYLREREMFGAEEDPFSVLTERELDVLHELAQGLSNKQIASVLNISEQTVKVHIRNLLRKLNVRSRVAATILFLQQRGAQ	2.4265 ± 0.00011	2.17 ± 0.36	4.47 ± 1.4	2.02 ± 0.099	2.08 ± 0.15	3.41 ± 0.22	5.71 ± 1	2.3 ± 0.18	2.86 ± 0.24	2.62 ± 0.31	4.65 ± 0.4	5.05 ± 0.31
MEKNSLFSQRIRLRHLHTFVAVAQQGTLGRAAETLNLSQPALSKTLNELEQLTGARLFERGRQGAQLTLPGEQFLTHAVRVLDAINTAGRSLHRKEGLNNDVVRVGALPTAALGILPSVIGQFHQQQKETTLQVATMSNPMILAGLKTGEIDIGIGRMSDPELMTGLNYELLFLESLKLVVRPNHPLLQENVTLSRVLEWPVVVSPEGTAPRQHSDALVQSQGCKIPSGCIETLSASLSRQLTVEYDYVWFVPSGAVKDDLRHATLVALPVPGHGAGEPIGILTRVDATFSSGCQLMINAIRKSMPF	2.66 ± 1.2	2.014 ± 0.017	4.21 ± 0.12	1.61 ± 0.065	1.77 ± 0.26	3.159 ± 0.0044	4.49 ± 0.46	2.01 ± 0.12	2.5 ± 0.039	2.67 ± 0.7	3.86 ± 0.13	5.7 ± 0.088
MKPDAHQVKQFLLNLQDTICQQLTAVDGAEFVEDSWQREAGGGGRSRVLRNGGVFEQAGVNFSHVHGEAMPASATAHRPELAGRSFEAMGVSLVVHPHNPYVPTSHANVRFFIAEKPGADPVWWFGGGFDLTPFYGFEEDAIHWHRTARDLCLPFGEDVYPRYKKWCDEYFYLKHRNEQRGIGGLFFDDLNTPDFDRCFAFMQAVGKGYTDAYLPIVERRKAMAYGERERNFQLYRRGRYVEFNLVWDRGTLFGLQTGGRTESILMSMPPLVRWEYDYQPKDGSPEAALSEFIKVRDWV	4.55 ± 0.073	5 ± 0.44	5.01 ± 0.37	4.05 ± 0.34		5.24 ± 0.9	10.1 ± 0.14	4.29 ± 0.35	7.38 ± 0.34	6.06 ± 0.66	11.7 ± 0.97	5.53 ± 1.4
MPSTRYQKINAHHYRHIWVVGDIHGEYQLLQSRLHQLSFFPKIDLLISVGDNIDRGPESLDVLRLLNQPWFTSVKGNHEAMALEAFETGDGNMWLASGGDWFFDLNDSEQQEAIDLLLKFHHLPHIIEITNDNIKYAIAHADYPGSEYLFGKEIAESELLWPVDRVQKSLNGELQQINGADYFIFGHMMFDNIQTFANQIYIDTGSPNSGRLSFYKIK							> 16	4.06			> 16	
MSVKIVIKPNTYFDSVSLMSISTRANKLDGVEQAFVAMATEMNKGVLKNLGLLTPELEQAKNGDLMIVINGKSGADNEQLLVEIEELFNTKAQSGSHEARYATIGSAKKHIPESNLAVISVNGLFAAREARQALQNDLNVMLFSDNVSVEDELALKQLAHEKGLLMMGPDCGTAIINGAALCFGNAVRRGNIGIVGASGTGSQELSVRIHEFGGGVSQLIGTGGRDLSEKIGGLMMLDAIGMLENDPQTEIIALISKPPAPAVARKVLERARACRKPVVVCFLDRGETPVDEQGLQFARGTKEAALKAVMLSGVKQENLDLHTLNQPLIADVRARLQPQQKYIRGLFCGGTLCDETMFAVMEKHGDVYSNIQPDPEFRLKDINRSIKHTFLDFGDDDFTNGKPHPMIDPTNRISRLIEEARDPEVAVIVMDFVLGFGSHEDPVGSTIETIKEAKAIAAAEGRELIILAYVLGTDLDTPSLEQQSQMLLDAGVILASSSTNTGLLAREFICKGEEA	6.9	3.51	3.92	3.47 ± 0.37	3.06	4.99 ± 0.41	4.892 ± 0.0075	5.14	8.02 ± 1.4	4.47	7.02	4.99

Source: the supplement of paper PMC11246515
